From the supplement of paper PMC10567573
± gives the standard deviation.

Test: protein stability index of a GFP-peptide fusion (GPS, HEK-293T) (PSI 1-6); higher = more stable
Conditions: c terminus: a fixed tail appended
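Further: 24-mer peptide tiles fused after GFP, lentivirally expressed, FACS-sorted into six equal bins by GFP/DsRed ratio, decoded by Illumina sequencing, PSI is the read-weighted mean bin number.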

CTVLRDARIRSHSWLESCIVGWRC [GMPPB]
protein stability index (treatment: DMSO): 2.42 ± 0.39
protein stability index (treatment: MLN4924 1 uM, 8 h): 1.93 ± 0.43

CMFCLYSFMPLVIKVTSATSVNLG [SLC35F2]
protein stability index (treatment: DMSO): 2.91 ± 0.72
protein stability index (treatment: MLN4924 1 uM, 8 h): 2.73 ± 0.41

EILGCPLPDPNNYYHRRNEMTTTD [CPXM2]
protein stability index (treatment: DMSO): 3.24 ± 0.21
protein stability index (treatment: MLN4924 1 uM, 8 h): 3.54 ± 0.56

RKMEVEELSPLALGRFSLTPAEGD [CDC25B]
protein stability index (treatment: DMSO): 4.66 ± 0.36
protein stability index (treatment: MLN4924 1 uM, 8 h): 4.79 ± 0.13

SFTSSDKTIKSFFPHSGKDCLLCF [C8orf76]
protein stability index (treatment: DMSO): 2.47 ± 0.51
protein stability index (treatment: MLN4924 1 uM, 8 h): 1.9 ± 0.44

IKQDINSLNKQIAQLQDFVRAKGS [STX5]
protein stability index (treatment: DMSO): 3.25 ± 0.12
protein stability index (treatment: MLN4924 1 uM, 8 h): 3.38 ± 0.28

IGDSRPPSFHPHAGGGSQENLDND [DVL3]
protein stability index (treatment: DMSO): 5.56 ± 0.18
protein stability index (treatment: MLN4924 1 uM, 8 h): 5.41 ± 0.1

AVPVSTSKPSSDLLDLQPDFSSGG [SNAP91]
protein stability index (treatment: DMSO): 4.76 ± 0.17
protein stability index (treatment: MLN4924 1 uM, 8 h): 4.84 ± 0.14

PSPTSPPPPELMDVSLVGGPADCS [DYRK1B]
protein stability index (treatment: DMSO): 5.09 ± 0.1
protein stability index (treatment: MLN4924 1 uM, 8 h): 5.14 ± 0.22

LTICYPEYAGSNTYEEAAAYIQCQ [GNAI1]
protein stability index (treatment: DMSO): 2.46 ± 0.25
protein stability index (treatment: MLN4924 1 uM, 8 h): 2.43 ± 0.46

VGGKIVGSLCAIAGVLTIALPVPV [KCNA4]
protein stability index (treatment: DMSO): 3.78 ± 0.78
protein stability index (treatment: MLN4924 1 uM, 8 h): 2.76 ± 0.46

TYPFLAMIMLKDRRMTVVGRLEGL [FAF2]
protein stability index (treatment: DMSO): 2.66 ± 0.76
protein stability index (treatment: MLN4924 1 uM, 8 h): 2.57 ± 0.46

DGLDGISVGSYLDTLADDVPGHQT [LURAP1L]
protein stability index (treatment: DMSO): 5.12 ± 0.27
protein stability index (treatment: MLN4924 1 uM, 8 h): 4.86 ± 0.22

SEADPQALLQAMKDLDGMDADILG [FBF1]
protein stability index (treatment: DMSO): 5.28 ± 0.25
protein stability index (treatment: MLN4924 1 uM, 8 h): 5.16 ± 0.35

SLLCLLCSNSQEHGAHKHHPIEEA [TRIM43]
protein stability index (treatment: DMSO): 2.67 ± 0.2
protein stability index (treatment: MLN4924 1 uM, 8 h): 2.77 ± 0.21

RMLIHKTEDVNTLDSEKRTPLHVA [ANKRD44]
protein stability index (treatment: DMSO): 4.06 ± 0.22
protein stability index (treatment: MLN4924 1 uM, 8 h): 4.15 ± 0.39

WPLRGKREAMLEMLLQHQICKEVQ [SPAG8]
protein stability index (treatment: DMSO): 2.17 ± 0.4
protein stability index (treatment: MLN4924 1 uM, 8 h): 2.11 ± 0.24

KIQLSDSEAKSHSSADDASAWSNI [FAN1]
protein stability index (treatment: DMSO): 4.757 ± 0.032
protein stability index (treatment: MLN4924 1 uM, 8 h): 4.74 ± 0.11

DSKSGGSGSESDHTTRSSLRGPRE [DVL3]
protein stability index (treatment: DMSO): 5.31 ± 0.27
protein stability index (treatment: MLN4924 1 uM, 8 h): 5.19 ± 0.22

FFSEIISSVSDVKFSHSGRYMLTR [PPP2R2C]
protein stability index (treatment: DMSO): 2.08 ± 0.48
protein stability index (treatment: MLN4924 1 uM, 8 h): 2.06 ± 0.22

EGSRKSSRVKGSAPEIDPSSDGSN [KMT2E]
protein stability index (treatment: DMSO): 5.36 ± 0.17
protein stability index (treatment: MLN4924 1 uM, 8 h): 5.21 ± 0.18

LIALANRFCLPHLVALAEQHAVQE [RHOBTB1]
protein stability index (treatment: DMSO): 3.16 ± 0.47
protein stability index (treatment: MLN4924 1 uM, 8 h): 3.33 ± 0.47

QGEEVAQRSTVFKTTIPEEEEEEE [LMNB1]
protein stability index (treatment: DMSO): 5.63 ± 0.19
protein stability index (treatment: MLN4924 1 uM, 8 h): 5.64 ± 0.25

IQDGTIHLYIYSIHSIPKGTEITI [KMT2E]
protein stability index (treatment: DMSO): 2.48 ± 0.43
protein stability index (treatment: MLN4924 1 uM, 8 h): 3.24 ± 0.15

MKRSKELITKNHSQEETSILRCWK [RNF180]
protein stability index (treatment: DMSO): 3.11 ± 0.24
protein stability index (treatment: MLN4924 1 uM, 8 h): 3.19 ± 0.058

RTPLMYCVLADRLDCADALLKAGA [INVS]
protein stability index (treatment: DMSO): 2.16 ± 0.35
protein stability index (treatment: MLN4924 1 uM, 8 h): 2.08 ± 0.15

LSEKEINAREESLVEELSPASEKK [BCL2L13]
protein stability index (treatment: DMSO): 5.42 ± 0.46
protein stability index (treatment: MLN4924 1 uM, 8 h): 5.58 ± 0.15

LFAPTLIYRDSYPRNPTVRWGYVA [SOAT1]
protein stability index (treatment: DMSO): 2.44 ± 0.55
protein stability index (treatment: MLN4924 1 uM, 8 h): 2.06 ± 0.35

AVKDGLIVETLTVGCKGSKAGIEQ [ZMYND11]
protein stability index (treatment: DMSO): 3.57 ± 0.14
protein stability index (treatment: MLN4924 1 uM, 8 h): 3.48 ± 0.22

LGYAVSTFAMVKGYFFPTSARDCK [DHCR7]
protein stability index (treatment: DMSO): 2.09 ± 0.11
protein stability index (treatment: MLN4924 1 uM, 8 h): 2.09 ± 0.13

SGSLEILQLLLGCKARMERDGYGM [FEM1A]
protein stability index (treatment: DMSO): 2.92 ± 0.51
protein stability index (treatment: MLN4924 1 uM, 8 h): 3.05 ± 0.6

CSRFFIDFPDILEQQRKLETYLQN [TENT5C]
protein stability index (treatment: DMSO): 2.17 ± 0.22
protein stability index (treatment: MLN4924 1 uM, 8 h): 2.24 ± 0.12

PEEKIWEELSVLEVFEGREDSILG [MAGEA3]
protein stability index (treatment: DMSO): 4.6 ± 0.44
protein stability index (treatment: MLN4924 1 uM, 8 h): 4.67 ± 0.11

CVLVDTGRPIPGTSTRYEQPKCDN [SMOC2]
protein stability index (treatment: DMSO): 3.79 ± 0.31
protein stability index (treatment: MLN4924 1 uM, 8 h): 3.77 ± 0.22

ALHIIVQYNRPISDFLTLHSIIIS [FEM1B]
protein stability index (treatment: DMSO): 3.03 ± 1
protein stability index (treatment: MLN4924 1 uM, 8 h): 2.37 ± 0.56
